This note sets out measurements from article PMC2112927.

The test deals with rabbit skeletal muscle F-actin (rabbit), P68135. Nature of the test: nanosecond emission anisotropy. To be noted: remark: other sources report otherwise.

B1: IAENS-labeled Dictyostelium severin, P10733 1-362 (natural protein)
chain: MIKNRKLDITSTNVAGIGTDLDKKCRLDAASTEAQWKGVGQAPGLKIWRIENFKVVPVPESSYGKFYDGDSYIILHTFKEGNSLKHDIHFFLGTFTTQDEAGTAAYKTVELDDFLGGAPIQYRQCQSYESPSFLSLFPKYFILSGGVESGFNHVKPTEYKPRLLHISGDKNAKVAEVPLATSSLNSGDCFLLDAGLTIYQFNGSKSSPQEKNKAAEVARAIDAERKGLPKVEVFCETDSDIPAEFWKLLGGKGAIAAKHETAPTKSEKVLYKLSDASGSLKFSEVSRGKINKSSLKSEDVFIIDLGNEIYTWIGSKSSPNEKKTAFSHATQYLVNNKRCEYTPIVRVLENGTNQSFETLLSA
modifications: here or on the partner: one to two IAENS molecules attached to the protein (residues not stated)
Turning to B1, the rotational correlation time is more than 400 ns.
